Assays:
[1] = target: the molecule itself; assay: pelleting by centrifugation + negative staining TEM
[2] = target: the molecule itself; assay: fibril formation seen by negative staining TEM
[3] = target: the molecule itself; assay: SEC
[4] = target: the molecule itself; assay: circular dichroism of fibrils collected by centrifugation
[5] = target: the molecule itself; assay: pelleting assay

B1: PKM2 amyloid core centre peptide, wild type (amino acids 382-402) (peptide)
peptide: AREAEAAIYHLQLFEELRRLA
Does B1 bind [1]?
Result: binds

B2: PKM2 amyloid core centre peptide H391R (amino acids 382-402) (peptide)
peptide: AREAEAAIYRLQLFEELRRLA
Does B2 bind [1]?
Result: binds

B3: Cdc19 amyloid core peptide, E380Q E392Q (peptide)
peptide: TSTTQTVAASAVAAVFQ
Does B3 bind [2]?
Result: binds

B4: Purified full-length Cdc19, wild type (enzyme)
chain: MSRLERLTSLNVVAGSDLRRTSIIGTIGPKTNNPETLVALRKAGLNIVRMNFSHGSYEYHKSVIDNARKSEELYPGRPLAIALDTKGPEIRTGTTTNDVDYPIPPNHEMIFTTDDKYAKACDDKIMYVDYKNITKVISAGRIIYVDDGVLSFQVLEVVDDKTLKVKALNAGKICSHKGVNLPGTDVDLPALSEKDKEDLRFGVKNGVHMVFASFIRTANDVLTIREVLGEQGKDVKIIVKIENQQGVNNFDEILKVTDGVMVARGDLGIEIPAPEVLAVQKKLIAKSNLAGKPVICATQMLESMTYNPRPTRAEVSDVGNAILDGADCVMLSGETAKGNYPINAVTTMAETAVIAEQAIAYLPNYDDMRNCTPKPTSTTETVAASAVAAVFEQKAKAIIVLSTSGTTPRLVSKYRPNCPIILVTRCPRAARFSHLYRGVFPFVFEKEPVSDWTDDVEARINFGIEKAKEFGILKKGDTYVSIQGFKAGAGHSNTLQVSTV
With B4 as the protein, how does the “stoichiometry N” value [3] read?
Its value is 4.

B5: Cdc19 amyloid core peptide, E380A E392A (peptide)
peptide: TSTTATVAASAVAAVFA
Does B5 bind [4]?
Result: binds

B6: Cdc19 amyloid core peptide, wild type (amino acids 376-392) (peptide)
peptide: TSTTETVAASAVAAVFE
Does B6 bind [4]?
Result: binds

B7: Purified full-length PKM2 H391R (enzyme)
chain: not shown
Does B7 bind [5]?
Result: binds
